To fix the notation:
B1: purified monoclonal antibody d7 (S97Y, D54I, N57H) (antibody, V domains shown)
VH: QVQLVESGGGVVQPGRSLRLSCAASGFTFSNYAMYWVRQAPGKGLEWVAVISYIGSHKYYADSVKGRFTISRDNSKNTLYLQMNSLRTEDTAVYYCASGSDYGDYLLVYWGQGTLVTVSS
VL: QSALTQPASVSGSPGQSITISCTGTSSDVGGYNYVSWYQQHPGKAPKLMIYDVSKRPSGVSNRFSGSKSGNTASLTISGLQSEDEADYYCNSLTSIYTWVFGGGTKLTVL
B2: purified monoclonal antibody A3 (N57A, L106N) (antibody, V domains shown)
VH: B1 VH with I54D, H57A, L106N
VL: B1 VL with Y97S
B3: purified monoclonal antibody d9 (S97Y, D54L, N57H) (antibody, V domains shown)
VH: B1 VH with I54L
VL: B1 VL

Changes are numbered by the printed parent chain. Names and notes keep the numbering of the source.

For the assay, the target named is SARS-CoV-2 WT spike RBD (SARS-CoV-2, wild type, UniProt P0DTC2). Briefly: SPR; Biacore 2000; […]; 45 μL/min, 180 s binding, […] dissociation; 1:1 binding model. The settings on record: both partners purified.
Take B1: the Kd was determined as 150 pM and the other was 3 times.

Consider B2, for which the Kd worked out at 170 pM and the other worked out at 3 times.

Regarding B3, the Kd came to 170 pM and the other was 3 times.
